# Numbering of substitutions follows the chain as printed.
# B1: re-constrained AptA, RLNKPLPSLPVH in full-length STM (designed binder)
# chain: MIPWGLSEAKPATPEIQEIVDKVKPQLEEKTNETYGKLEAVQYKTQVDAGTNYYIKVRAGDNKYMHLKVFNGPRLNKPLPSLPVHGPPGQNEDLVLTGYQVDKNKDDELTGF
# notes: Stop codon of AptA replaced, making a full-length aptamer constrained in STM
# B2: re-constrained AptA, RLNKPLPSLPVK in full-length STM (designed binder)
# chain: B1 chain with H85K
# notes: as for B1
# B3: re-constrained AptA, RLNKPLPSLPVC in full-length STM (designed binder)
# chain: B1 chain with H85C
# notes: as for B1
# B4: re-constrained AptA, RLNKPLPSLPVL in full-length STM (designed binder)
# chain: B1 chain with H85L
# notes: as for B1
# B5: re-constrained AptA, RLNKPLPSLPVP in full-length STM (designed binder)
# chain: B1 chain with H85P
# notes: as for B1
# B6: re-constrained AptA, RLNKPLPSLPVA in full-length STM (designed binder)
# chain: B1 chain with H85A
# notes: as for B1
# B7: re-constrained AptA, RLNKPLPSLPVG in full-length STM (designed binder)
# chain: B1 chain with H85G
# notes: as for B1
# B8: re-constrained AptA, RLNKPLPSLPVF in full-length STM (designed binder)
# chain: B1 chain with H85F
# notes: as for B1
# B9: re-constrained AptA, RLNKPLPSLPVS in full-length STM (designed binder)
# chain: B1 chain with H85S
# notes: as for B1
# B10: re-constrained AptA, RLNKPLPSLPVN in full-length STM (designed binder)
# chain: B1 chain with H85N
# notes: as for B1
# B11: re-constrained AptA, RLNKPLPSLPVW in full-length STM (designed binder)
# chain: B1 chain with H85W
# notes: as for B1
# B12: re-constrained AptA, RLNKPLPSLPVI in full-length STM (designed binder)
# chain: B1 chain with H85I
# notes: as for B1
# B13: re-constrained AptA, RLNKPLPSLPVQ in full-length STM (designed binder)
# chain: B1 chain with H85Q
# notes: as for B1
# B14: re-constrained AptA, RLNKPLPSLPVT in full-length STM (designed binder)
# chain: B1 chain with H85T
# notes: as for B1
# B15: re-constrained AptA, RLNKPLPSLPVE in full-length STM (designed binder)
# chain: B1 chain with H85E
# notes: as for B1
# B16: re-constrained AptA, RLNKPLPSLPVR in full-length STM (designed binder)
# chain: B1 chain with H85R
# notes: as for B1
# B17: re-constrained AptA, RLNKPLPSLPVV in full-length STM (designed binder)
# chain: B1 chain with H85V
# notes: as for B1
# B18: re-constrained AptA, RLNKPLPSLPVM in full-length STM (designed binder)
# chain: B1 chain with H85M
# notes: as for B1
# B19: re-constrained AptA, RLNKPLPSLPVY in full-length STM (designed binder)
# chain: B1 chain with H85Y
# notes: as for B1
# B20: control peptide aptamer RLNKPLPSLPVG* (truncated STM) (designed binder)
# chain: MIPWGLSEAKPATPEIQEIVDKVKPQLEEKTNETYGKLEAVQYKTQVDAGTNYYIKVRAGDNKYMHLKVFNGPRLNKPLPSLPVG
# notes: Ends at a stop codon after the added G (unconstrained control)
# B21: Apt40 (peptide aptamer 040 in truncated STM) (designed binder)
# chain: MIPWGLSEAKPATPEIQEIVDKVKPQLEEKTNETYGKLEAVQYKTQVDAGTNYYIKVRAGDNKYMHLKVFNGPVENKPLPALPAVGP
# notes: Truncated by a frame-shift and an out-of-frame stop codon
# B22: Apt94 (peptide aptamer 094 in truncated STM) (designed binder)
# chain: MIPWGLSEAKPATPEIQEIVDKVKPQLEEKTNETYGKLEAVQYKTQVDAGTNYYIKVRAGDNKYMHLKVFNGPANKPLPALPALGSAVE
# notes: as for B21
# B23: Apt34 (peptide aptamer 034 in truncated STM) (designed binder)
# chain: MIPWGLSEAKPATPEIQEIVDKVKPQLEEKTNETYGKLEAVQYKTQVDAGTNYYIKVRAGDNKYMHLKVFNGPSVNKPLPSLPSLPVYGP
# notes: as for B21
# B24: AptA (peptide aptamer A in truncated STM) (designed binder)
# chain: MIPWGLSEAKPATPEIQEIVDKVKPQLEEKTNETYGKLEAVQYKTQVDAGTNYYIKVRAGDNKYMHLKVFNGPRLNKPLPSLPV
# notes: Scaffold ends at the in-frame stop codon after the 11mer (unconstrained C-terminal peptide); also called PepA; pepA
# B25: Apt124 (peptide aptamer 124 in truncated STM) (designed binder)
# chain: B24 chain with L75G, S81A, V84L
# notes: Scaffold ends at the in-frame stop codon after the 11mer
# B26: Apt32 (peptide aptamer 032 in truncated STM) (designed binder)
# chain: B24 chain with R74L, L75P, V84L
# notes: Scaffold ends at the in-frame stop codon after the 11mer; also called Pep32
# B27: STM peptide aptamer 03 (designed binder)
# chain: B1 chain with R74D, S81A
# notes: Insert (with its GP ends) constrained in STM; also called Apt03
# B28: STM peptide aptamer 05 (designed binder)
# chain: B1 chain with R74N, S81A, H85L
# notes: Insert (with its GP ends) constrained in STM; also called Apt05; Pep05
# B29: STM peptide aptamer 01 (designed binder)
# chain: MIPWGLSEAKPATPEIQEIVDKVKPQLEEKTNETYGKLEAVQYKTQVDAGTNYYIKVRAGDNKYMHLKVFNGPVPNKPLPALPVIGPGVNKPLPALPAHGPIRNKPLPSLPASGPPGQNEDLVLTGYQVDKNKDDELTGF
# notes: Insert (with its GP ends) constrained in STM
# B30: STM peptide aptamer 09 (designed binder)
# chain: MIPWGLSEAKPATPEIQEIVDKVKPQLEEKTNETYGKLEAVQYKTQVDAGTNYYIKVRAGDNKYMHLKVFNGPMLNKPLPSLPVGGPGLNKPLPSLPAAGPPGQNEDLVLTGYQVDKNKDDELTGF
# notes: as for B29
# B31: STM peptide aptamer 06 (designed binder)
# chain: B30 chain with M74V, L75V, G85K, G88D, L89V, A99V
# notes: as for B29
# B32: STM peptide aptamer 08 (designed binder)
# chain: B30 chain with M74D, L75P, K77R, G85T, G88Y, S95A, A98V, A99S
# notes: as for B29
# B33: STM peptide aptamer 20 (designed binder)
# chain: B30 chain with M74R, L75M, V84L, G88A, L89M, S95A, A98L, A99Q
# notes: as for B29
# B34: STM peptide aptamer 02 (designed binder)
# chain: B30 chain with M74V, G85M, G88T, L89P, S95P
# notes: as for B29
# B35: STM peptide aptamer 13 (designed binder)
# chain: B30 chain with M74Y, V84L, G85C, G88S, L89V, K91R, S95A, A98D, A99V
# notes: as for B29
# B36: STM peptide aptamer 11 (designed binder)
# chain: B30 chain with M74F, L75P, S81A, V84L, G85T, G88V, K91R, S95P, A98R, A99N
# notes: as for B29
# B37: STM peptide aptamer 10 (designed binder)
# chain: B30 chain with M74I, S81A, V84L, G85R, G88D, L89P, K91R, S95A, A98V, A99T
# notes: as for B29
# B38: STM peptide aptamer 04 (designed binder)
# chain: B30 chain with M74Y, K77R, V84A, G85Y, G88W, L89V, K91R, A98L, A99S
# notes: as for B29
# B39: STM peptide aptamer 17 (designed binder)
# chain: B30 chain with M74E, L75P, S81A, V84L, G85T, G88V, K91R, S95P, A98R, A99N
# notes: as for B29
# B40: STM peptide aptamer 07 (designed binder)
# chain: B30 chain with M74P, L75N, N76V, S81A, V84L, G85M, G88L, S95A, A98L, A99D
# notes: as for B29
# Molecular target: T1, SH3 domain of yeast Sho1p (yeast two-hybrid bait, pEG202-Sho1-SH3) (yeast, UniProt P40073 300-367, limits assumed)
# T1 construct: domain: SH3 domain; also called Sho1p SH3 domain
# Experiment: yeast two-hybrid, Sho1-SH3 binding
# Excerpt: We noted that other peptides containing a leucine at −5 (such as Apt03 and 05) were not inhibitory. Unlike AptA, these two peptide aptamers are constrained. To test the idea that constraint prevents the PPII helix of peptide aptamers such as Apt03 and 05 from productive interaction with Sho1 SH3, we replaced the C-terminal stop codon of AptA with codons encoding each amino acid residue in turn to make AptA a full-length peptide aptamer constrained in STM. After re-constraint, only one of the seven amino acid residues P, V, C, D, H, F and W at +5 allow binding to Sho1 SH3 in the context of a constrained protein (Table IV). This contrasts with the findings of Feng et al [Feng S, Chen J K, Yu H, Simon J A, Schreiber S L. 1994. Two binding orientations for peptides to the Src SH3 domain: development of a general model for SH3-ligand interactions. Science. 266: 1241-7] and Rickles et al [Rickles R J, Botfield M C, Zhou X M, Henry P A, Brugge J S, Zoller M J. 1995. Phage display selection of ligand residues important for Src homology 3 domain binding specificity. Proc Natl Acad Sci USA. […] In addition, none of the constrained AptA variants show the ability to inhibit Pbs2-Hog1 activation (Table IV). […] They further indicate that in the context of STM, the presence of one of the 7 permissive residues at position +5 either allows the formation of a left handed type II polyproline helix or allows interaction at a surface on Sho1 distinct from the SH3 domain.
# T1 sequence (P40073 300-367 limits assumed): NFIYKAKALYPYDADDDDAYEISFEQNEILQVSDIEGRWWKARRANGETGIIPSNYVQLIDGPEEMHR
row,binding result,Binder
1,binds,B1
2,binds,B2
3,binds,B3
4,no binding,B4
5,binds,B5
6,no binding,B6
7,no binding,B7
8,binds,B8
9,no binding,B9
10,binds,B10
11,binds,B11
12,no binding,B12
13,no binding,B13
14,no binding,B14
15,no binding,B15
16,no binding,B16
17,binds,B17
18,no binding,B18
19,no binding,B19
20,binds,B20

# Molecular target: T1, SH3 domain of yeast Sho1p (yeast …)
# Experiment: yeast two-hybrid screen
# Excerpt: (§1) Degenerate oligonucleotide cassettes were made by annealing and amplifying P20 and P21 encoding a biased library designed around the Pbs2p proline rich sequence ([…]) (SEQ ID NO: 33) that interacts with the SH3 domain of Sho1p. Translation of the cassette gives X(L/V/P/A)N(K/R)PLP(P/S/A)LP(L/V/P/A)X (SEQ ID NO: 34). At the DNA level, this oligonucleotide should give rise to a library with a theoretical complexity of 98,304. The cassette was ligated into STM pJG4-5, and grown up in XL10 Gold cells (Stratagene). The midi-prepped (Qiagen) DNA was used to create a yeast library of 6×10⁴ cells in EGY48, theoretically covering 60% of the sequences encoded by the library. These cells were mated with EGY42 cells carrying pEG202-Sho1-SH3, made as described above. Interactors were selected on -UHTL/X-Gal/Gal-Raff plates for 4 days, picked and the plasmids rescued into E. coli KC8 cells. The plasmids were transformed back into EGY48 to confirm interaction with the SH3 domain of Sho1p in EGY42 using an interaction-mating matrix.
row,binding result,Binder
1,binds,B21
2,binds,B22
3,binds,B23
4,binds,B24
5,binds,B25
6,binds,B26

# Molecular target: T1, SH3 domain of yeast Sho1p (yeast …)
# Experiment: yeast two-hybrid screen, confirmed by interaction mating
# Excerpt: as §1
row,binding result,Binder
1,binds,B27
2,binds,B28
3,binds,B29
4,binds,B30
5,binds,B31
6,binds,B32
7,binds,B33
8,binds,B34
9,binds,B35
10,binds,B36
11,binds,B37
12,binds,B38
13,binds,B39
14,binds,B40

# — patent publication US20120190819A1 (MEDICAL RESEARCH COUNCIL, published 2012)
